Measured values: patent US20110318353A1 (Janssen / Centocor, published 2011)
Residue numbers refer to the chain shown, from its start. Like-named read-outs stand apart in the source and are kept apart here. Each block holds one molecule with its values, some of them ahead of it.

Legend:
human IL-25 [1] = molecular target: T1, human IL-25 (human, UniProt Q9H293 33-177); assay: Biacore, 7200 sec dissociation
T1 sequence: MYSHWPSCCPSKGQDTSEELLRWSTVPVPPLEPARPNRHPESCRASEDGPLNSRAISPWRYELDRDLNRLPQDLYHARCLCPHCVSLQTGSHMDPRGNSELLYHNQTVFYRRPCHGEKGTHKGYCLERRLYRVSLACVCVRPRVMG
Description: (§1) The Fabs were converted to mAbs as follows. A combinatorial library of 5 different light chains and 5 different heavy chains (including the huDDG91 light and heavy chains) was designed. The light and heavy chains used in the library differed from one another in the light chain CDR1 and CDR3 amino acid sequences and the heavy chain CDR 3 sequence. Using these light and heavy chains, a total of 25 mAbs (IgG1) were constructed, expressed in HEK293 cells at small scale and purified. Each of the mAbs was tested for IL-25 binding affinity, cellular inhibition, and receptor inhibition as follows: [0149] IL-25 binding affinity was determined using standard IL-25 ELISA and Biacore binding assays. […] Cellular inhibition was assessed using a standard TK-10 human renal carcinoma cell-based assay (IL-25 responsive; IL-25 and IL-8 readout; capable of discerning difference between soluble IL-25R and parental mAb) and a CD4+ T cell-based assay. […] Receptor inhibition was assessed using a modified bead-based electrochemiluminescence immunoassay (ECLIA). Candidates causing a greater than 3-fold decrease in IC₅₀ of IL-25 binding to receptor relative to parental huDDG91 antibody at a 10 nM mAb concentration were selected.

human IL-25 [2] = molecular target: T1, human IL-25; assay: Receptor inhibition (column sub-head 'Panel A/ B'): bead-based ECLIA, inhibition of IL-25 binding to the IL-25 receptor
Description: as §1

human IL-25 [3] = molecular target: T1, human IL-25
human IL-25 [4] = molecular target: T1, human IL-25; assay: Biacore, 7200 sec dissociation; second R71V G1 row, printed in italics = number from a different data set
human IL-25 [5] = molecular target: T1, human IL-25; assay: Receptor inhibition (column sub-head 'Panel A/ B'): bead-based ECLIA, inhibition of IL-25 binding to the IL-25 receptor; upper end of the range
Description: as §1

human IL-25 [6] = molecular target: T1, human IL-25; assay: Receptor inhibition (column sub-head 'Panel A/ B'): bead-based ECLIA, inhibition of IL-25 binding to the IL-25 receptor; lower end of the range
Description: as §1

human IL-25 [7] = molecular target: T1, human IL-25; assay: Biacore, 7200 sec dissociation; first R71V G1 row
Description: as §1

human IL-25 [8] = molecular target: T1, human IL-25; assay: cell-based or functional assay
human IL-25 [9] = molecular target: T1, human IL-25; assay: Biacore, 7200 sec dissociation; printed in italics = number from a different data set
cynomolgus monkey IL-25 = molecular target: T2, cynomolgus monkey IL-25 (cynomolgus monkey, UniProt G7P9V9 33-176); assay: species cross-reactivity criterion; method not stated
T2 construct: also called cynoIL-25; cyno IL-25
T2 sequence: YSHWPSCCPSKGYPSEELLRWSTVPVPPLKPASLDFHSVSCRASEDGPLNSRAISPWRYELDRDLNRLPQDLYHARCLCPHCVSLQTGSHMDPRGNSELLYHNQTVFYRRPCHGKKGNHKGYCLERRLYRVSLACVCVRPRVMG

human IL-25 [10] = molecular target: T1, human IL-25; assay: receptor inhibition: IL-25 binding to receptor, bead-based ECLIA

Kd (human IL-25 [1]): 0.017 nM | IC50 (human IL-25 [2]): 0.063 nM | Cellular inhibition, fold change (human IL-25 [3]): 1 fold change
Molecule: IL-17BR (receptor)

Kd (human IL-25 [1]): 0.087 nM | IC50 (human IL-25 [2]): 0.011 nM | Cellular inhibition, fold change (human IL-25 [8]): 4 fold change
B2: I25M32 (antibody, V domains shown)
VH: EVQLVESGAEVKKPGASVKVSCKASGYSFSGYTMNWVRQAPGQRLEWMGLINPYNGGTSYNQNFKGRVTLTVDTSASTAYLELNSLRSEDTGVYYCAREDYDSWTFFAMDYWGQGTLVTVS
VL: DIQMTQSPSSLSASVGDRVTITCSASQGINEYLNWYQQKPGKVPKLLIYYTSSLHSGVPSRFSGSGSGTDFTLTISSLQPEDVATYYCQQYINFPYTFGQGTKLEIK
notes: One of the 9 candidate IgG1 mAbs of the combinatorial library based on huDDG91

Kd (human IL-25 [1]): 0.04 nM | IC50 (human IL-25 [2]): 0.018 nM | Cellular inhibition, fold change (human IL-25 [8]): 12 fold change
B3: I25M31 (antibody, V domains shown)
VH: B2 VH with Y101F, F106Y
VL: B2 VL with N30S, E31N, I92S, N93K, F94L
notes: as for B2

Kd (human IL-25 [1]): 0.044 nM | IC50 (human IL-25 [2]): 0.02 nM | Cellular inhibition, fold change (human IL-25 [8]): 3 fold change
B5: I25M30 (antibody, V domains shown)
VH: B2 VH with Y101F, F106Y
VL: B2 VL with N30H, E31W, Y32N, Y91F, I92N, N93S
notes: as for B2

Kd (human IL-25 [1]): 0.019 nM | IC50 (human IL-25 [2]): 0.014 nM | Cellular inhibition, fold change (human IL-25 [8]): 16 fold change
B6: I25M28 (antibody, V domains shown)
VH: B2 VH with Y101F, F106Y
VL: B2 VL with N30S, E31N, I92L, N93A
notes: as for B2

Kd (human IL-25 [1]): 0.064 nM | IC50 (human IL-25 [2]): 0.013 nM | Cellular inhibition, fold change (human IL-25 [8]): 7 fold change
B9: I25M34 (antibody, V domains shown)
VH: B2 VH with Y101F, F106Y
VL: B2 VL
notes: as for B2

Further lines, the molecule ahead of its results:

B1: huDDG91 antibody (antibody, V domains shown)
VH: B2 VH with S103G, W104Y, T105L, F106Y
VL: B2 VL with N30S, E31N, I92S, N93K, F94L
notes: Humanized (CDR-grafted) version of murine 2C3; also called RH2.5_R71V; M9
Kd (human IL-25 [4]): 0.136 nM | IC50 (human IL-25 [5]): ≤ 0.0643 nM | IC50 (human IL-25 [6]): ≥ 0.0452 nM | Kd (human IL-25 [7]): 0.194 nM

B4: I25M20 (antibody, V domains shown)
VH: B2 VH
VL: B2 VL with N30S, E31N, I92L, N93A
notes: as for B2
Kd (human IL-25 [9]): 0.045 nM | IC50 (human IL-25 [2]): 0.013 nM | Cellular inhibition, fold change (human IL-25 [8]): 20 fold change

B7: I25M10 (antibody, V domains shown)
VH: B2 VH with Y101F
VL: B2 VL with N30S, E31N, I92L, N93A
notes: as for B2
Kd (human IL-25 [1]): 0.036 nM | IC50 (human IL-25 [2]): 0.014 nM | Cellular inhibition, fold change (human IL-25 [8]): 5 fold change

B8: I25M11 (antibody, V domains shown)
VH: B2 VH with Y101F
VL: B2 VL with N30A, E31S, Y32F, I92S, N93S
notes: as for B2
Kd (human IL-25 [1]): 0.057 nM | IC50 (human IL-25 [2]): 0.014 nM | Cellular inhibition, fold change (human IL-25 [8]): 5 fold change

B10: M6 antibody (antibody, human IgG1, kappa, V domains shown)
VH: EVQLVESGAEVKKPGASVKVSCKASGYSFSGYTMNWVRQAPGQRLEWMGLINPYNGGTSYNQNFKGRVTLTVDTSASTAYLELNSLRSEDTGVYYCAREDYDGYLYFAMDYWGQGTLVTVSS
VL: DIQMTQSPSSLSASVGDRVTITCSASQGISNYLNWYQQKPGKVPKLLIYYTSSLHSGVPSRFSGSGSGTDFTLTISSLQPEDVATYYCQQYLAFPYTFGQGTKLEIKR
notes: Humanized IgG1 mAb with kappa light chain, a variant of huDDG91 with three substitutions in light chain CDR3
Kd (human IL-25 [1]): 0.053 nM | IC50 (human IL-25 [2]): 0.012 nM | affinity relative to that for human IL-25 (cynomolgus monkey IL-25): ≤ 5 fold | fold decrease in IC50 compared to huDDG91 (human IL-25 [10]): > 3 fold | Cellular inhibition, fold change (human IL-25 [8]): 4 fold change
